Measurements reported in patent US20250154217A1 (ZONHON BIOPHARMA INSTITUTE, published 2025).
Residue numbers refer to the chain shown, from its start. In names and notes the source's numbering stands.

T1: IL-2Rα(CD25) (UniProt P01589 22-213, limits assumed)
T1 construct: also called IL-2α
T1 sequence (looked up): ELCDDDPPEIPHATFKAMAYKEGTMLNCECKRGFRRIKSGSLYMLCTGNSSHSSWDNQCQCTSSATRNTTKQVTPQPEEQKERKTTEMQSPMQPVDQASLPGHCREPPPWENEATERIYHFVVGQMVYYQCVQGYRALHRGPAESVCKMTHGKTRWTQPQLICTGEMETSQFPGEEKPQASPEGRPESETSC

T2: IL-2Rβ(CD122) (UniProt P14784 27-239, limits assumed)
T2 construct: also called IL-2β
T2 sequence (looked up): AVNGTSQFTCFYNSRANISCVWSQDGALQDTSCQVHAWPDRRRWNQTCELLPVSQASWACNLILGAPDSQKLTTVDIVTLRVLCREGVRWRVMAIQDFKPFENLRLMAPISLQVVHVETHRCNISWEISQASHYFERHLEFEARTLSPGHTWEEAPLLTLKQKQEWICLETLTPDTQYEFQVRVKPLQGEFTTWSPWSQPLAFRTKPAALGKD

T3: IL-2Rβ/γ receptor (UniProt P14784 27-239; P31785 23-262, limits assumed)
T3 sequence (looked up) 1: T2 sequence (looked up)
T3 sequence (looked up) 2: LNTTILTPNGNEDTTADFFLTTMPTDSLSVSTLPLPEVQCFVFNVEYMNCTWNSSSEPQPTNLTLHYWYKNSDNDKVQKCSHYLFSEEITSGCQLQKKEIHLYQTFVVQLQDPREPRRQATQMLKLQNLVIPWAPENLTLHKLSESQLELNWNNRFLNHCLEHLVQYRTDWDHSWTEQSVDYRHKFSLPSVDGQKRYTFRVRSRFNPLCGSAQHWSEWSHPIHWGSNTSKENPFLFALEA

B1: IL-2 mutant G438 (ligand)
chain: APTSSSTRKTQLQLEHLLLDLQMILNGINNYKNPKLTRMLTFKFYMPWKATELKHLQCLEEELKPLEEVLNLAQSKNFHLRPRDLISNINVIVLELKGSETTFMCEYADETATIVEFLNRWITFAQSIISTLT
B2: IL-2 mutant G438P12 (ligand)
chain: B1 chain with L18M, L19S, W48R
B3: IL-2 mutant G438P9 (ligand)
chain: B1 chain with L18M, L19S, F42A
notes: also called GP9
B4: IL-2 mutant G438P17 (ligand)
chain: B1 chain with L18M, L19S, R81D, P82T, R83E, S87D
notes: also called GP17
B5: IL-2 mutant G498 (ligand)
chain: B1 chain with K43W, K54W, K64H, K97F
B6: IL-2 mutant G438P1 (ligand)
chain: B1 chain with L18M, L19S
notes: also called GP1
B7: IL-2 mutant G438P10 (ligand)
chain: B1 chain with L18M, L19S, H79E, R81D
notes: also called GP10
B8: IL-2 mutant G496 (ligand)
chain: B1 chain with K43W, K54W, K64H, K97R
B9: IL-2 mutant G438P7 (ligand)
chain: B1 chain with R38E, T41E
notes: also called GP7
B10: IL-2 mutant G438P8 (ligand)
chain: B1 chain with L72F, R81D
notes: also called GP8
B11: IL-2 mutant G438P6 (ligand)
chain: B1 chain with F42A, K43D
notes: also called GP6
B12: IL-2 mutant G438P2 (ligand)
chain: B1 chain with K35E, K43D
notes: also called GP2
B13: IL-2 mutant G438P16 (ligand)
chain: B1 chain with L18M, L19S, R38E, T41E, P82A, S87D
notes: also called GP16
B14: IL-2 mutant G438P3 (ligand)
chain: B1 chain with G27C, F78C
notes: also called GP3
B15: IL-2 mutant G438P14 (ligand)
chain: B1 chain with L18M, L19S, R38E, T41E
notes: also called GP14
B16: IL-2 mutant G438P15 (ligand)
chain: B1 chain with L18M, L19S, R38E, T41E, Y45R, L72F
notes: also called GP15
B17: IL-2 mutant G493 (ligand)
chain: B1 chain with K43W, K54W, K64H, K97E
B18: IL-2 mutant G438P19 (ligand)
chain: PTSSSTRKTQLQLEHLMSDLQMILNGINNYKNPKLTRMLTFKFYMPWKATELKHLQCLEEELKPLEEVLNLAQSKNFHLRPRDLISNINVIVLELKGSETTFMCEYADETATIVEFLNRWITFSQSSSQH
notes: Printed: lack of the first amino acid A, K8R/L18M/L19S/K48W/A125S, IISTLT from position 128 mutated to SSQH; also called GP19

Each binder was assayed against T1, IL-2Rα(CD25) (assay: BLI (Fortebio)).
Method: (§1) The affinity between IL-2 mutants and their receptors was detected by Bio-Layer Interferometry (BLI).
(§2) Receptor solution: IL-2Rα(CD25), IL-2Rβ(CD122) and IL-2Rβ/γ receptor samples were diluted to 15-20 μg/mL with 1×Kinetics buffer, mixed and stored in a dark place.
(§3) Samples were added to the sample wells according to the protocol design, and 200 μL of reagent or sample was added to each well.
Binder B1 has a Kd of 13.4 nM. B2 showed a Kd of 8.48 nM. With B3 the Kd was 34.7 nM. B4 was tested, and the Kd was 94.9 nM. B5: no binding. B6 gave a Kd of 17.9 nM. Binder B7 has a Kd of 36.1 nM. B8: no binding. For B9, the Kd was 178000 nM. B10 gave a Kd of 131 nM. For B11, the Kd was 119 nM. Work on B12 yielded a Kd of 68.9 nM. B13 gave a Kd of 353 nM. Work on B14 yielded a Kd of 26.4 nM. B15: no binding. For B16, the Kd was 170 nM. B17: no binding. In the case of B18, the Kd is reported as 38.6 nM.

These binders were tested against T2, IL-2Rβ(CD122) (assay: BLI (Fortebio)).
Method: as §1, §2, §3
In the case of B1, the Kd is reported as 15.3 nM. B2 gave a Kd of 7.29 nM. B3 was tested, and the Kd was 26.4 nM. Work on B4 yielded a Kd of 61 nM. B5: no binding. B6 gave a Kd of 18.3 nM. B7 was tested, and the Kd was 30.5 nM. B8: no binding. B9 showed a Kd of 64.2 nM. B10 was tested, and the Kd was 12 nM. For B11, the Kd was 52.3 nM. Binder B12 has a Kd of 18.3 nM. With B13 the Kd was 142 nM. Binder B14 has a Kd of 12.1 nM. With B15 the Kd was 42600 nM. B16 was tested, and the Kd was 87.1 nM. B17: no binding. With B18 the Kd was 12.9 nM.

These binders were tested against T3, IL-2Rβ/γ receptor (assay: BLI (Fortebio)).
Method: as §1, §2, §3
Binder B9 has a Kd of 35.4 nM. B10 gave a Kd of 32.7 nM. B15 gave a Kd of 39.6 nM. In the case of B16, the Kd is reported as 136000 nM.
